Measurements published in IntAct's records for PubMed 26751641.

B1: Chromodomain-helicase-DNA-binding protein 1 (Homo sapiens), O14646 (parent)
chain: MNGHSDEESVRNSSGESSQSDDDSGSASGSGSGSSSGSSSDGSSSQSGSSDSDSGSESGSQSESESDTSRENKVQAKPPKVDGAEFWKSSPSILAVQRSAILKKQQQQQQQQQHQASSNSGSEEDSSSSEDSDDSSSEVKRKKHKDEDWQMSGSGSPSQSGSDSESEEEREKSSCDETESDYEPKNKVKSRKPQNRSKSKNGKKILGQKKRQIDSSEEDDDEEDYDNDKRSSRRQATVNVSYKEDEEMKTDSDDLLEVCGEDVPQPEEEEFETIERFMDCRIGRKGATGATTTIYAVEADGDPNAGFEKNKEPGEIQYLIKWKGWSHIHNTWETEETLKQQNVRGMKKLDNYKKKDQETKRWLKNASPEDVEYYNCQQELTDDLHKQYQIVERIIAHSNQKSAAGYPDYYCKWQGLPYSECSWEDGALISKKFQACIDEYFSRNQSKTTPFKDCKVLKQRPRFVALKKQPSYIGGHEGLELRDYQLNGLNWLAHSWCKGNSCILADEMGLGKTIQTISFLNYLFHEHQLYGPFLLVVPLSTLTSWQREIQTWASQMNAVVYLGDINSRNMIRTHEWTHHQTKRLKFNILLTTYEILLKDKAFLGGLNWAFIGVDEAHRLKNDDSLLYKTLIDFKSNHRLLITGTPLQNSLKELWSLLHFIMPEKFSSWEDFEEEHGKGREYGYASLHKELEPFLLRRVKKDVEKSLPAKVEQILRMEMSALQKQYYKWILTRNYKALSKGSKGSTSGFLNIMMELKKCCNHCYLIKPPDNNEFYNKQEALQHLIRSSGKLILLDKLLIRLRERGNRVLIFSQMVRMLDILAEYLKYRQFPFQRLDGSIKGELRKQALDHFNAEGSEDFCFLLSTRAGGLGINLASADTVVIFDSDWNPQNDLQAQARAHRIGQKKQVNIYRLVTKGSVEEDILERAKKKMVLDHLVIQRMDTTGKTVLHTGSAPSSSTPFNKEELSAILKFGAEELFKEPEGEEQEPQEMDIDEILKRAETHENEPGPLTVGDELLSQFKVANFSNMDEDDIELEPERNSKNWEEIIPEDQRRRLEEEERQKELEEIYMLPRMRNCAKQISFNGSEGRRSRSRRYSGSDSDSISEGKRPKKRGRPRTIPRENIKGFSDAEIRRFIKSYKKFGGPLERLDAIARDAELVDKSETDLRRLGELVHNGCIKALKDSSSGTERTGGRLGKVKGPTFRISGVQVNAKLVISHEEELIPLHKSIPSDPEERKQYTIPCHTKAAHFDIDWGKEDDSNLLIGIYEYGYGSWEMIKMDPDLSLTHKILPDDPDKKPQAKQLQTRADYLIKLLSRDLAKKEALSGAGSSKRRKARAKKNKAMKSIKVKEEIKSDSSPLPSEKSDEDDDKLSESKSDGRERSKKSSVSDAPVHITASGEPVPISEESEELDQKTFSICKERMRPVKAALKQLDRPEKGLSEREQLEHTRQCLIKIGDHITECLKEYTNPEQIKQWRKNLWIFVSKFTEFDARKLHKLYKHAIKKRQESQQNSDQNSNLNPHVIRNPDVERLKENTNHDDSSRDSYSSDRHLTQYHDHHKDRHQGDSYKKSDSRKRPYSSFSNGKDHRDWDHYKQDSRYYSDREKHRKLDDHRSRDHRSNLEGSLKDRSHSDHRSHSDHRLHSDHRSSSEYTHHKSSRDYRYHSDWQMDHRASSSGPRSPLDQRSPYGSRSPFEHSVEHKSTPEHTWSSRKT

Variants of: B1
Conditions: with KDM1A

Row | Variant | effect of a mutation on the interaction
1 | D425A | disrupting interaction strength
